The text below walks through data of paper PMC8031885, “Targeted mutagenesis on PDGFRα-Fc identifies amino acid modifications that allow efficient inhibition of HCMV infection while abolishing PDGF sequestration” (PLoS Pathogens, 2021).

What all share (assay): cell-based or functional assay
In assay [1] the target is T1, gH/gL/gO trimer of HCMV TB40-BAC4 (human cytomegalovirus, strain TB40/E …).
The target of assay [2] is PDGF-BB (UniProt P01127 82-190, NT-647 dye on amines (amine reactive labelling kit RED-NHS) in the MST experiments; unlabelled in the signalling assays).
Assay [3] deals with T1, gH/gL/gO trimer of HCMV TB40-BAC4. This is another data set of the same source.
Assay [4] shares this target. This is another data set of the same source.

B1: PDGFRα-Fc wild type (Fc fusion)
chain: QLSLPSILPNENEKVVQLNSSFSLRCFGESEVSWQYPMSEEESSDVEIRNEENNSGLFVTVLEVSSASAAHTGLYTCYYNHTQTEENELEGRHIYIYVPDPDVAFVPLGMTDYLVIVEDDDSAIIPCRTTDPETPVTLHNSEGVVPASYDSRQGFNGTFTVGPYICEATVKGKKFQTIPFNVYALKATSELDLEMEALKTVYKSGETIVVTCAVFNNEVVDLQWTYPGEVKGKGITMLEEIKVPSIKLVYTLTVPEATVKDSGDYECAARQATREVKEMKKVTISVHEKGFIEIKPTFSQLEAVNLHEVKHFVVEVRAYPPPRISWLKNNLTLIENLTEITTDVEKIQEIRYRSKLKLIRAKEEDSGHYTIVAQNEDAVKSYTFELLTQVPSSILDLVDDHHGSTGGQTVRCTAEGTPLPDIEWMICKDIKKCNNETSWTILANNVSNIITEIHSRDRSTVEGRVTFAKVEETIAVRCLAKNLLGAENRELKLVAPTLRSELTVA
Turning to B1, in assay [1], the “EC50 of inhibition of HCMV TB40-BAC4-IE-GLuc infection of fibroblasts (Gaussia luciferase read-out)” value is less than 0.02 µg/mL; the “EC50 of inhibition of HCMV TB40-BAC4 infection of fibroblasts and of endothelial cells (immediate-early antigen staining)” value is roughly 0.01 µg/mL. Also, in assay [2], the “EC50 for inhibition of PDGF signaling (6 ng/ml PDGF-BB, phospho-Akt ELISA, fibroblasts)” value was found to be 0.013 µg/mL. The “HCMV inhibition EC50 (Table 2; differs from Table 1)” value in assay [3] stood at 0.0046 µg/mL. In assay [4], the “HCMV inhibition EC50 (TB40-BAC4-IE-GLuc, fibroblasts, immediate-early antigen staining)” value turned out to be 0.0056 µg/mL.

B2: PDGFRα-Fc I139E + V242K (Fc fusion)
chain: QLSLPSILPNENEKVVQLNSSFSLRCFGESEVSWQYPMSEEESSDVEIRNEENNSGLFVTVLEVSSASAAHTGLYTCYYNHTQTEENELEGRHIYIYVPDPDVAFVPLGMTDYLVEVEDDDSAIIPCRTTDPETPVTLHNSEGVVPASYDSRQGFNGTFTVGPYICEATVKGKKFQTIPFNVYALKATSELDLEMEALKTVYKSGETIVVTCAVFNNEKVDLQWTYPGEVKGKGITMLEEIKVPSIKLVYTLTVPEATVKDSGDYECAARQATREVKEMKKVTISVHEKGFIEIKPTFSQLEAVNLHEVKHFVVEVRAYPPPRISWLKNNLTLIENLTEITTDVEKIQEIRYRSKLKLIRAKEEDSGHYTIVAQNEDAVKSYTFELLTQVPSSILDLVDDHHGSTGGQTVRCTAEGTPLPDIEWMICKDIKKCNNETSWTILANNVSNIITEIHSRDRSTVEGRVTFAKVEETIAVRCLAKNLLGAENRELKLVAPTLRSELTVA
B2: in assay [1], the “HCMV inhibition EC50 (fibroblasts, immediate-early antigen staining)” value worked out at 0.027 µg/mL.

B3: PDGFRα-Fc I139A + Y206A (Fc fusion)
chain: QLSLPSILPNENEKVVQLNSSFSLRCFGESEVSWQYPMSEEESSDVEIRNEENNSGLFVTVLEVSSASAAHTGLYTCYYNHTQTEENELEGRHIYIYVPDPDVAFVPLGMTDYLVAVEDDDSAIIPCRTTDPETPVTLHNSEGVVPASYDSRQGFNGTFTVGPYICEATVKGKKFQTIPFNVAALKATSELDLEMEALKTVYKSGETIVVTCAVFNNEVVDLQWTYPGEVKGKGITMLEEIKVPSIKLVYTLTVPEATVKDSGDYECAARQATREVKEMKKVTISVHEKGFIEIKPTFSQLEAVNLHEVKHFVVEVRAYPPPRISWLKNNLTLIENLTEITTDVEKIQEIRYRSKLKLIRAKEEDSGHYTIVAQNEDAVKSYTFELLTQVPSSILDLVDDHHGSTGGQTVRCTAEGTPLPDIEWMICKDIKKCNNETSWTILANNVSNIITEIHSRDRSTVEGRVTFAKVEETIAVRCLAKNLLGAENRELKLVAPTLRSELTVA
Consider B3, for which the “HCMV inhibition EC50 (TB40-BAC4-IE-GLuc, fibroblasts, immediate-early antigen staining)” value in assay [4] stood at 0.0198 µg/mL.

B4: PDGFRα-Fc I139E (Fc fusion)
chain: QLSLPSILPNENEKVVQLNSSFSLRCFGESEVSWQYPMSEEESSDVEIRNEENNSGLFVTVLEVSSASAAHTGLYTCYYNHTQTEENELEGRHIYIYVPDPDVAFVPLGMTDYLVEVEDDDSAIIPCRTTDPETPVTLHNSEGVVPASYDSRQGFNGTFTVGPYICEATVKGKKFQTIPFNVYALKATSELDLEMEALKTVYKSGETIVVTCAVFNNEVVDLQWTYPGEVKGKGITMLEEIKVPSIKLVYTLTVPEATVKDSGDYECAARQATREVKEMKKVTISVHEKGFIEIKPTFSQLEAVNLHEVKHFVVEVRAYPPPRISWLKNNLTLIENLTEITTDVEKIQEIRYRSKLKLIRAKEEDSGHYTIVAQNEDAVKSYTFELLTQVPSSILDLVDDHHGSTGGQTVRCTAEGTPLPDIEWMICKDIKKCNNETSWTILANNVSNIITEIHSRDRSTVEGRVTFAKVEETIAVRCLAKNLLGAENRELKLVAPTLRSELTVA
Turning to B4, in assay [2], the “EC50 for inhibition of PDGF signaling (6 ng/ml PDGF-BB, phospho-Akt ELISA, fibroblasts); the paper says incomplete inhibition precludes a precise value” was roughly 2 µg/mL. The “HCMV inhibition EC50 (TB40-BAC4-IE-GLuc, fibroblasts, immediate-early antigen staining)” value in assay [4] came out at 0.0328 µg/mL.

B5: PDGFRα-Fc Y206S (Fc fusion)
chain: QLSLPSILPNENEKVVQLNSSFSLRCFGESEVSWQYPMSEEESSDVEIRNEENNSGLFVTVLEVSSASAAHTGLYTCYYNHTQTEENELEGRHIYIYVPDPDVAFVPLGMTDYLVIVEDDDSAIIPCRTTDPETPVTLHNSEGVVPASYDSRQGFNGTFTVGPYICEATVKGKKFQTIPFNVSALKATSELDLEMEALKTVYKSGETIVVTCAVFNNEVVDLQWTYPGEVKGKGITMLEEIKVPSIKLVYTLTVPEATVKDSGDYECAARQATREVKEMKKVTISVHEKGFIEIKPTFSQLEAVNLHEVKHFVVEVRAYPPPRISWLKNNLTLIENLTEITTDVEKIQEIRYRSKLKLIRAKEEDSGHYTIVAQNEDAVKSYTFELLTQVPSSILDLVDDHHGSTGGQTVRCTAEGTPLPDIEWMICKDIKKCNNETSWTILANNVSNIITEIHSRDRSTVEGRVTFAKVEETIAVRCLAKNLLGAENRELKLVAPTLRSELTVA
Regarding B5, the “HCMV inhibition EC50 (TB40-BAC4-IE-GLuc, fibroblasts, immediate-early antigen staining)” value in assay [4] was 0.0311 µg/mL.

B6: PDGFRα-Fc Y206S + V242K (Fc fusion)
chain: QLSLPSILPNENEKVVQLNSSFSLRCFGESEVSWQYPMSEEESSDVEIRNEENNSGLFVTVLEVSSASAAHTGLYTCYYNHTQTEENELEGRHIYIYVPDPDVAFVPLGMTDYLVIVEDDDSAIIPCRTTDPETPVTLHNSEGVVPASYDSRQGFNGTFTVGPYICEATVKGKKFQTIPFNVSALKATSELDLEMEALKTVYKSGETIVVTCAVFNNEKVDLQWTYPGEVKGKGITMLEEIKVPSIKLVYTLTVPEATVKDSGDYECAARQATREVKEMKKVTISVHEKGFIEIKPTFSQLEAVNLHEVKHFVVEVRAYPPPRISWLKNNLTLIENLTEITTDVEKIQEIRYRSKLKLIRAKEEDSGHYTIVAQNEDAVKSYTFELLTQVPSSILDLVDDHHGSTGGQTVRCTAEGTPLPDIEWMICKDIKKCNNETSWTILANNVSNIITEIHSRDRSTVEGRVTFAKVEETIAVRCLAKNLLGAENRELKLVAPTLRSELTVA
As for B6, in assay [1], the “HCMV inhibition EC50 (fibroblasts, immediate-early antigen staining)” value amounted to 0.047 µg/mL.

B7: PDGFRα-Fc I139E + Y206S (Fc fusion)
chain: QLSLPSILPNENEKVVQLNSSFSLRCFGESEVSWQYPMSEEESSDVEIRNEENNSGLFVTVLEVSSASAAHTGLYTCYYNHTQTEENELEGRHIYIYVPDPDVAFVPLGMTDYLVEVEDDDSAIIPCRTTDPETPVTLHNSEGVVPASYDSRQGFNGTFTVGPYICEATVKGKKFQTIPFNVSALKATSELDLEMEALKTVYKSGETIVVTCAVFNNEVVDLQWTYPGEVKGKGITMLEEIKVPSIKLVYTLTVPEATVKDSGDYECAARQATREVKEMKKVTISVHEKGFIEIKPTFSQLEAVNLHEVKHFVVEVRAYPPPRISWLKNNLTLIENLTEITTDVEKIQEIRYRSKLKLIRAKEEDSGHYTIVAQNEDAVKSYTFELLTQVPSSILDLVDDHHGSTGGQTVRCTAEGTPLPDIEWMICKDIKKCNNETSWTILANNVSNIITEIHSRDRSTVEGRVTFAKVEETIAVRCLAKNLLGAENRELKLVAPTLRSELTVA
As for B7, the “HCMV inhibition EC50 (TB40-BAC4-IE-GLuc, fibroblasts, immediate-early antigen staining)” value in assay [4] was found to be 0.0252 µg/mL.
